Data reported in publication PMC6370856, “Peptidyl prolyl cis/trans isomerase activity on the cell surface correlates with extracellular matrix development” (Communications Biology, 2019).

Legend:
Jurkat cells [1] = test: Cellular uptake of TAMRA compounds by Jurkat cells (flow cytometry); format: cell-based; details: 100 nM TAMRA compounds, 1 and 24 hours, compared with Cs9-TAMRA
Protocol: A final concentration of 100 nM DNA-conjugated TAMRA compounds and Cs9TAMRA was incubated with Jurkat cells for 1 h or 24 h, the cells were pelleted by centrifugation at 1000 rpm for 5 min, the pellet was washed one time with fluorescent-activated cell sorting (FACS) buffer (PBS with 1% bovine serum albumin), and resuspended in FACS buffer. BD FACS Canto™ II Flow Cytometer was used to analyze the uptake of these compounds by Jurkat cells (Supplementary Fig. 5).

[2] = test system: mixture of Jurkat T lymphocyte and the plasma protein fibrinogen; test: Viscosity/shear rate measurement of Jurkat cells in fibrinogen solution; format: cell-based
Description: Since PPIases can catalyze the dynamic rearrangement of the dense ECM polymer network, we speculated that PPIases could also affect the dynamic interaction between cells and the ECM. Probing the influence of transient prolyl isomerization on cell–ECM interaction is difficult. Studying cell adhesion by the treatment of PPIase inhibitors cannot distinguish extracellular and intracellular factors as well as receptor-mediated signaling due to the long assay time. In order to reflect the highly dynamic process, we measured the viscosity of plasma protein solution with cells. Blood is a shear-thinning non-Newtonian fluid, and its viscosity is largely affected by the interaction between cells and plasma proteins, for example, the coagulation process. We investigated whether the catalyzed isomerization could also influence the interaction between blood cells and plasma proteins, thus affecting the viscosity. We performed viscosity/shear rate measurements using a mixture of Jurkat T lymphocyte and the plasma protein fibrinogen.
The machine used for viscosity is the same as for stiffness measurements. To 30 µL of 4 mg mL^−1 fibrinogen, an equal volume of Jurkat cells (8 × 10^7 mL^−1 in PBS, washed two times with PBS before used; Jurkat cells ocupated around 20% of the volume) was added. The mixture was pipetted up and down six times, kept on ice for 10 min, and then transferred to the rheometer plater (25 °C) for measurements. The plate temperature was raised to 37 °C. The measurement was performed by increasing shear rate ramp liner from 100 to 1000 s^−1. Hundred data points were collected during the measurements. For each condition, two independent experiments were performed (Fig. 1c and Supplementary Fig. 3).

Jurkat cells [3] = test: Stability of DNA-conjugated compounds under Jurkat cell treatment (LC/MS); format: in vitro ADME; details: CsA-DNA 500 nM, SLF-DNA 1000 nM, two independent experiments
Protocol: A designed concentration of DNA-conjugated compounds (30 µL in PBS) was incubated with 30 µL of PBS or the cell on ice for 10 min, then 20 min at 37 °C, which is much longer then the viscosity assay time. All the samples were centrifuged at 1000 rpm for 3 min, and then, 30 µL of the supernatant was transferred to MS tube for LC/MS analysis (Supplementary Fig. 4).

[4] = PPIase activity of His-CypB immobilized on Ni-NTA silica; format: biochemical; details: 25 pmol immobilized on Ni-NTA silica showed a similar activity to 1 pmol free control
Protocol: Ten microliters of His-CypB (2.5 µM, 2 µM, 1.5 µM, and 1 µM) was incubated with 10 µL of settled Ni-NTA macroporous silica (Ni-NTA Spin Kit; Qiagen) for 30 min at 0 °C. Subsequently, 80 µL of HEPES buffer was added and incubated for another 10 min with gentle shaking. The silica was precipitated by gravity for 10 min. Eighty microliters were taken from the supernatant and measured along with the silica fraction (the remaining 20 µL) for PPIase activity. The amounts of CypB in the wells were 25, 20, 15, and 10 pmol. Additionally, the activity of 10 µL of 100 nM His-CypB in solution was measured. Three independent experiments were performed. The result is shown in Supplementary Fig. 9.

CsA-DNA: CsA-conjugated oligonucleotide, 5-amino modifier C6-CTCTTCCGATCTC (chemistry not fully specified)
cell entry / uptake by Jurkat cells (Jurkat cells [1]): do not enter into cells
effect on viscosity of cell/fibrinogen mixture ([2]; Jurkat T lymphocyte and fibrinogen, shear rate 100-1000 s^-1): reduced viscosity
Viscosity Mean ([2]; shear rate 102 s-1): 3.276 mPa·s
Viscosity Mean ([2]; shear rate 112 s-1): 2.725 mPa·s
Viscosity Mean ([2]; shear rate 122 s-1): 2.3889 mPa·s
Viscosity Mean ([2]; shear rate 132 s-1): 2.173 mPa·s
Viscosity Mean ([2]; shear rate 142 s-1): 1.975 mPa·s
Viscosity Mean ([2]; shear rate 152 s-1): 1.931 mPa·s
Viscosity Mean ([2]; shear rate 162 s-1): 1.858 mPa·s
Viscosity Mean ([2]; shear rate 173 s-1): 1.71 mPa·s
Viscosity Mean ([2]; shear rate 183 s-1): 1.682 mPa·s
Viscosity Mean ([2]; shear rate 193 s-1): 1.63 mPa·s
Viscosity Mean ([2]; shear rate 203 s-1): 1.558 mPa·s
Viscosity Mean ([2]; shear rate 253 s-1): 1.438 mPa·s
Viscosity Mean ([2]; shear rate 263 s-1): 1.4013 mPa·s
Viscosity Mean ([2]; shear rate 284 s-1): 1.361 mPa·s
Viscosity Mean ([2]; shear rate 304 s-1): 1.331 mPa·s
Viscosity Mean ([2]; shear rate 334 s-1): 1.301 mPa·s
Viscosity Mean ([2]; shear rate 344 s-1): 1.29 mPa·s
Viscosity Mean ([2]; shear rate 354 s-1): 1.29 mPa·s
Viscosity Mean ([2]; shear rate 364 s-1): 1.269 mPa·s
Viscosity Mean ([2]; shear rate 374 s-1): 1.245 mPa·s
Viscosity Mean ([2]; shear rate 384 s-1): 1.237 mPa·s
Viscosity Mean ([2]; shear rate 395 s-1): 1.237 mPa·s
Viscosity Mean ([2]; shear rate 415 s-1): 1.212 mPa·s
Viscosity Mean ([2]; shear rate 425 s-1): 1.198 mPa·s
Viscosity Mean ([2]; shear rate 475 s-1): 1.142 mPa·s
Viscosity Mean ([2]; shear rate 526 s-1): 1.138 mPa·s
Viscosity Mean ([2]; shear rate 556 s-1): 1.137 mPa·s
Viscosity Mean ([2]; shear rate 576 s-1): 1.139 mPa·s
Viscosity Mean ([2]; shear rate 909 s-1): 0.9613 mPa·s
Viscosity Mean ([2]; shear rate 919 s-1): 1.096 mPa·s
Viscosity Mean ([2]; shear rate 929 s-1): 0.9906 mPa·s
Viscosity Mean ([2]; shear rate 939 s-1): 0.9737 mPa·s
Viscosity Mean ([2]; shear rate 980 s-1): 0.896 mPa·s
Viscosity Mean ([2]; shear rate 990 s-1): 0.87 mPa·s
Viscosity Mean ([2]; shear rate 1000 s-1): 0.9112 mPa·s
area of UV absorbance at 260 nm in supernatant (Jurkat cells [3]; Jurkat cell 4 X 107/mL treatment): 3054±270
area of UV absorbance at 260 nm in supernatant (Jurkat cells [3]; PBS control): 2218±11

His-CypB: recombinant His-tagged cyclophilin B, immobilized on Ni-NTA macroporous silica
catalytic activity of immobilized enzyme versus free enzyme in solution [4]: diminished catalytic activity
